Measured values taken from patent US20210277453.

How the values were obtained:
Assay in all cases: cell_activity
[1] = test system: TlpA (Salmonella typhimurium); conditions: thermal derepression of GFP in E. coli, 31.4 to 44.6 C
[2] = test system: TlpA36 (Salmonella typhimurium); conditions: thermal derepression of GFP in E. coli, 31.4 to 44.6 C
[3] = test system: TlpA39 (Salmonella typhimurium); conditions: thermal derepression of GFP in E. coli, 31.4 to 44.6 C
[4] = molecular target: TcI (cI857, A67T) (bacteriophage lambda) (UniProt P03034); conditions: thermal derepression of GFP in E. coli, 34.2 to 40 C; text gives >1,432
[5] = molecular target: TcI38 (bacteriophage lambda) (UniProt P03034); conditions: thermal derepression of GFP in E. coli, 32.4 to 40 C
[6] = molecular target: TcI42 (bacteriophage lambda) (UniProt P03034); conditions: thermal derepression of GFP in E. coli, 32.4 to 45.7 C

Substance	activity [1] [fold]	activity [2] [fold]	activity [3] [fold]	activity [4] [fold]	activity [5] [fold]	activity [6] [fold]
TlpA operator/promoter, 52 bp	355	370	1520	–	–	–
tandem pR/pL operator/promoter	–	–	–	1430	1030	1690
